# Laboratory results from publication PMC11573789.
# Legend:
# Assay in all cases: NanoBiT (ratiometric protein-fragment complementation assay in live yeast)
# Conditions in all cases: four experimental replicates; read off a plot
# Caf40 = molecular target: Caf40
# Eft2 = molecular target: Eft2
# [1] = molecular target: Nmd2/Upf2 [S. cerevisiae]
other: NanoBiT ratio (log2 scale) (Caf40) [log2],other: NanoBiT ratio (log2 scale) (Eft2) [log2],screen value [1] [log2],Substance
1.4,1.1,,Upf1-SmBiT (from UniProt P30771) C122S
,,-2.5,Upf1-SmBiT mutant C122S [S. cerevisiae] / Nmd2/Upf2 [S. cerevisiae] chain 1 C122S
